This note sets out measurements from US20210155697A1 (UNITY BIOTECHNOLOGY, published 2021).

Assay [1] has as its target T1, human full-length Tie2 on cells (human, UniProt Q02763 23-1124). Briefly: cell-based or functional assay.
In assay [2] the target is T1, human full-length Tie2 on cells. Kind of assay: flow cytometry on HEK293/Human Tie2 cells, mAb at 10 ug/mL. Also noted: unit not given here. An excerpt: (§1) Briefly, expression plasmids containing the full-length Tie2 coding sequence for each species were used to transfect primary human endothelial cells (HUVECs) as well as human embryonic kidney (HEK293) cells. A stable cell population was selected by treating transfectants with puromycin antibiotic over the course of 2 weeks and single cell clones were generated using fluorescence activated cell sorting. Upon confirmation of cell surface expression of these Tie2 variants, cell lines were used to determine apparent Kd (EC50) values of anti-Tie2 antibodies on the various Tie2 proteins. […] Cells were labeled with decreasing concentrations of anti-Tie2 antibodies #1, #2, and #3 (10, 5, 2.5, 1, […], 0.63, 0.31, and 0.16 ug/mL) or non-specific hIgG1 antibody (10 ug/mL), followed by labeling with a rabbit anti-human IgG antibody conjugated to an Alexa Fluor 488 fluorophore (20 ug/ml). EC50 values were generated using ForeCyt™ software.
Target sequence in this assay (Q02763 23-1124 limits assumed): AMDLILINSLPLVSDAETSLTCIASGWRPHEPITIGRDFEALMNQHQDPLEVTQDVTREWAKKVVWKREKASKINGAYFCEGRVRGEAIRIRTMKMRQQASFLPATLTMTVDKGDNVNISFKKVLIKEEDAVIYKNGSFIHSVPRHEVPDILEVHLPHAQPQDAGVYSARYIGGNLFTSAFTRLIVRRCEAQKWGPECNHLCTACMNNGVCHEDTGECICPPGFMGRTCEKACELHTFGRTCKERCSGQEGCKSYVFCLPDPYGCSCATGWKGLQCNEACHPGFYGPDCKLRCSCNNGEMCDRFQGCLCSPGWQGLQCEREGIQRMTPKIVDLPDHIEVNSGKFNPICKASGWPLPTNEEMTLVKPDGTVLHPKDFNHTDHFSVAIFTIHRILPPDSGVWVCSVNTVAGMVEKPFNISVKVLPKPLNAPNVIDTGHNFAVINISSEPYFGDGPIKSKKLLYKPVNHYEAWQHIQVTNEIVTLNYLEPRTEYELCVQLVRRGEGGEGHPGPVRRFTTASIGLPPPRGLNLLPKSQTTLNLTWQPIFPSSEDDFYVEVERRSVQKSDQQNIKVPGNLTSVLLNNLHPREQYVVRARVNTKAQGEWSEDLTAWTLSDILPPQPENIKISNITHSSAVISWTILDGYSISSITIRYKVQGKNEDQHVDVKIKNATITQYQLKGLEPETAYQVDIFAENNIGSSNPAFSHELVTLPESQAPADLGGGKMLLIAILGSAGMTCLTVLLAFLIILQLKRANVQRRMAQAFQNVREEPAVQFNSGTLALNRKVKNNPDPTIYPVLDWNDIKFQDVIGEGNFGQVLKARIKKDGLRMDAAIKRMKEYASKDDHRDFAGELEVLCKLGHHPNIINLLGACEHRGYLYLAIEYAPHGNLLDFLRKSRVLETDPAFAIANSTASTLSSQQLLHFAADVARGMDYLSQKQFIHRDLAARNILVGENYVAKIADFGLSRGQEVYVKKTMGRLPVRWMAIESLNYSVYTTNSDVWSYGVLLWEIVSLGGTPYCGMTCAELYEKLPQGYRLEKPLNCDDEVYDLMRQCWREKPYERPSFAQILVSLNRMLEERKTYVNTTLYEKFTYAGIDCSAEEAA

Assay [3] deals with T2, cynomolgus monkey full-length Tie2 on HEK293 cells (cynomolgus monkey, UniProt G7PS68 23-1124).
T2 construct: whole, on cells; also called HEK293/Cyno Tie2; HEK/cyno Tie2
Kind of assay: flow cytometry on HEK/cyno Tie2 cells; Apparent Kd (EC50 binding).
From the text: as §1
Background: Flow cytometry measures light scatter and fluorescence of single cells or particles in a stream.

The target of assay [4] is T1, human full-length Tie2 on cells. Briefly: flow cytometry on HUVEC; Apparent Kd (EC50 binding).
From the text: as §1

Assay [5] has as its target T2, cynomolgus monkey full-length Tie2 on …. Kind of assay: flow cytometry on HEK293/Cyno Tie2 cells, mAb at 10 ug/mL.
From the text: as §1

For assay [6], the target named is T3, rabbit full-length Tie2 on HEK cells (rabbit).
T3 chain: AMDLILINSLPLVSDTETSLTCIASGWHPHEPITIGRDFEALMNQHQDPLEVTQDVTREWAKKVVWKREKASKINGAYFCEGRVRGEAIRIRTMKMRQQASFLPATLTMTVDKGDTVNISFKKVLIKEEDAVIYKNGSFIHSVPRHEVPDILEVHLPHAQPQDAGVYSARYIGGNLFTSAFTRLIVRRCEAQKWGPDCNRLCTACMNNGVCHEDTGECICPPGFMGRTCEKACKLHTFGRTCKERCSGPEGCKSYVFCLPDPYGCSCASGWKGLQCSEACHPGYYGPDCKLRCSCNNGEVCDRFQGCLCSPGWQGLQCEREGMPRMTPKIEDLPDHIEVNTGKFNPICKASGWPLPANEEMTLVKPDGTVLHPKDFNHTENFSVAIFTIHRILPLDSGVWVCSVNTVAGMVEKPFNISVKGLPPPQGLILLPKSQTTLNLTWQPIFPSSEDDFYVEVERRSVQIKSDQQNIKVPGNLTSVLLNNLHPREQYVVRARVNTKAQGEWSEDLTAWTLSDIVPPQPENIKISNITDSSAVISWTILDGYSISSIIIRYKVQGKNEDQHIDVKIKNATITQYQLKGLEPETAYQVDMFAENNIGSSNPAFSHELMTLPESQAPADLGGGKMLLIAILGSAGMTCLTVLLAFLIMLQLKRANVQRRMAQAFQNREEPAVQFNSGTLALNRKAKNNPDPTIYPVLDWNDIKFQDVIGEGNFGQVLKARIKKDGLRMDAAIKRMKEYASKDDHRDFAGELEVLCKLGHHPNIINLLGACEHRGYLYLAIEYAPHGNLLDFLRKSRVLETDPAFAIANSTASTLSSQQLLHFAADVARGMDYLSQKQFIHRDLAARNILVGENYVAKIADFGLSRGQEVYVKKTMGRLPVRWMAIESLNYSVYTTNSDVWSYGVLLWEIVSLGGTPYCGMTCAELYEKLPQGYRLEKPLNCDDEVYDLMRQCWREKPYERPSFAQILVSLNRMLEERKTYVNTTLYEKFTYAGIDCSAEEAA
Kind of assay: flow cytometry on HEK/RbTie2 cells; Apparent Kd (EC50 binding).
From the text: as §1

For assay [7], the target named is T1, human full-length Tie2 on cells. Briefly: flow cytometry on HEK/huTie2 cells; Apparent Kd (EC50 binding).
From the text: as §1

In assay [8] the target is T4, murine full-length Tie2 on HEK293 cells (mouse, UniProt Q02858 23-1122).
T4 construct: whole, on cells; also called HEK293/Murine Tie2; HEK/mTie2
Kind of assay: flow cytometry on HEK293/Murine Tie2 cells, mAb at 10 ug/mL.
From the text: as §1

In assay [9] the target is T5, rat full-length Tie2 on HEK cells (rat, UniProt A0ABK0L6J5 19-1116).
T5 construct: whole, on cells; also called HEK/ratTie2
Kind of assay: flow cytometry on HEK/ratTie2 cells; Apparent Kd (EC50 binding).
From the text: as §1

Assay [10] has as its target T6, recombinant mouse Tie2 ECD protein (mouse, UniProt Q02858 23-746).
T6 construct: extracellular domain
Kind of assay: SPR (BIACORE), Tie2 ECD immobilized on CM5, Fab as analyte, 25 C. How it is done: (§2) BIACORE™ (BIAcore, Inc., Piscataway, N.J.) was performed at 25° C. with immobilized human, rat or mouse Tie2 ECD antigens on carboxymethylated dextran biosensor chips (CM5) chips at about 10 response units (RU). CM5 chips were activated with N-ethyl-N′-(3-dimethylaminopropyl)-carbodiimide hydrochloride (EDC) and N-hydroxysuccinimide (NFIS) according to the supplier's instructions. All Tie2 ECD antigens were diluted with 10 mM sodium acetate, pH 4.8, to […] before injection at a flow rate of 5 μl/minute to achieve approximately 10 RU of coupled protein. Following the injection of each Tie2 ECD, 1 M ethanolamine was injected to block unreacted groups. For kinetics measurements, two-fold serial dilutions of the antibody clone #3 Fab (0.78 nM to 500 nM) were injected in PBS with 0.05% polysorbate 20 (TWEEN™-20) surfactant (PBST) at 25° C. at a flow rate of approximately 25 μl/min. Association rates (kon) and dissociation rates (koff) were calculated using a simple one-to-one Langmuir binding model (BIACORE™ Evaluation Software version 3.2) by simultaneously fitting the association and dissociation sensorgrams. The equilibrium dissociation constant (KD) was calculated as the ratio koff/kon. See, for example, Chen et al., J. Mol. Biol. 293:865-881 (1999).
(In SPR one partner is held on a chip, and binding of the other changes the refractive index at the surface.)

The target of assay [11] is T7, recombinant human Tie2 ECD protein (human, UniProt Q02763 23-748).
T7 construct: also called human Tie2 extracellular domain
The assay is described as above. How it is done: as §2

The next assay deals with T8, Rat Tie2 ECD (rat, UniProt A0ABK0L6J5 19-740).
T8 construct: extracellular domain
The assay is described as above. How it is done: as §2

T7 sequence (Q02763 23-748 limits assumed): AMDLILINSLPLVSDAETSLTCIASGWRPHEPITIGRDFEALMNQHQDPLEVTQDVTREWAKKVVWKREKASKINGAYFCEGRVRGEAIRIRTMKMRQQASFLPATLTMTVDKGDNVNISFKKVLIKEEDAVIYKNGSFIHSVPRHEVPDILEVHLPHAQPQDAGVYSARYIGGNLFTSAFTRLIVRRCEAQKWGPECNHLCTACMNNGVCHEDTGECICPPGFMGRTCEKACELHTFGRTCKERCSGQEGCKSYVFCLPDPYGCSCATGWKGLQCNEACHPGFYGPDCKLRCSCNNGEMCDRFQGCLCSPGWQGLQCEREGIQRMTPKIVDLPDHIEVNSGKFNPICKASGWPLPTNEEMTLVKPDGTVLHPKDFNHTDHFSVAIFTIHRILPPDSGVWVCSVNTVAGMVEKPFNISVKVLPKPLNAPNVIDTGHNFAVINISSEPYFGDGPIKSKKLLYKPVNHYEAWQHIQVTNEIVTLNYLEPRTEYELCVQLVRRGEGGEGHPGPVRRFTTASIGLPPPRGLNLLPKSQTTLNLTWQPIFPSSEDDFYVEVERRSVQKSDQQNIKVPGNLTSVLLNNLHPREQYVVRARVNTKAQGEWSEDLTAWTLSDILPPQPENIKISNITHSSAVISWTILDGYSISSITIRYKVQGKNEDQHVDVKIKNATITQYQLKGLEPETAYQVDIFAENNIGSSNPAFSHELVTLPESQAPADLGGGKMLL
T6 sequence (Q02858 23-746): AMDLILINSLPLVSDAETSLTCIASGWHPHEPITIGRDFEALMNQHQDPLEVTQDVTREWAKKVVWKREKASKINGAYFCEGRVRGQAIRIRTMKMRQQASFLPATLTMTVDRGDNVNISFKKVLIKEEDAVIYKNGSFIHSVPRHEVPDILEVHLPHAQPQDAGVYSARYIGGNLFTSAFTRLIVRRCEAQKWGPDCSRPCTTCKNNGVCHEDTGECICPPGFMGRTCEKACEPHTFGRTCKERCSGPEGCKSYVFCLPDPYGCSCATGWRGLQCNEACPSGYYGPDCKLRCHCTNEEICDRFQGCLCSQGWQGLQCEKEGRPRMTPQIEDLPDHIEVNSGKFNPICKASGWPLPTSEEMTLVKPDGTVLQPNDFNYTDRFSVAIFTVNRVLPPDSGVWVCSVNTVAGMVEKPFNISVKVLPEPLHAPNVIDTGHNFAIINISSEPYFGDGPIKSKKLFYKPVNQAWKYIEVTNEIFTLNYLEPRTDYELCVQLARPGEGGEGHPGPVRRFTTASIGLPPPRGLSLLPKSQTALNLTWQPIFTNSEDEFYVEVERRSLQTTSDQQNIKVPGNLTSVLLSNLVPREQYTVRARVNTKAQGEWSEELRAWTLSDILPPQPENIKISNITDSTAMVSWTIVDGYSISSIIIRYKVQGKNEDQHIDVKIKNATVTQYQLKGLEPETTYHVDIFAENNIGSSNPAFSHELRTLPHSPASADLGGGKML
T4 sequence (Q02858 23-1122): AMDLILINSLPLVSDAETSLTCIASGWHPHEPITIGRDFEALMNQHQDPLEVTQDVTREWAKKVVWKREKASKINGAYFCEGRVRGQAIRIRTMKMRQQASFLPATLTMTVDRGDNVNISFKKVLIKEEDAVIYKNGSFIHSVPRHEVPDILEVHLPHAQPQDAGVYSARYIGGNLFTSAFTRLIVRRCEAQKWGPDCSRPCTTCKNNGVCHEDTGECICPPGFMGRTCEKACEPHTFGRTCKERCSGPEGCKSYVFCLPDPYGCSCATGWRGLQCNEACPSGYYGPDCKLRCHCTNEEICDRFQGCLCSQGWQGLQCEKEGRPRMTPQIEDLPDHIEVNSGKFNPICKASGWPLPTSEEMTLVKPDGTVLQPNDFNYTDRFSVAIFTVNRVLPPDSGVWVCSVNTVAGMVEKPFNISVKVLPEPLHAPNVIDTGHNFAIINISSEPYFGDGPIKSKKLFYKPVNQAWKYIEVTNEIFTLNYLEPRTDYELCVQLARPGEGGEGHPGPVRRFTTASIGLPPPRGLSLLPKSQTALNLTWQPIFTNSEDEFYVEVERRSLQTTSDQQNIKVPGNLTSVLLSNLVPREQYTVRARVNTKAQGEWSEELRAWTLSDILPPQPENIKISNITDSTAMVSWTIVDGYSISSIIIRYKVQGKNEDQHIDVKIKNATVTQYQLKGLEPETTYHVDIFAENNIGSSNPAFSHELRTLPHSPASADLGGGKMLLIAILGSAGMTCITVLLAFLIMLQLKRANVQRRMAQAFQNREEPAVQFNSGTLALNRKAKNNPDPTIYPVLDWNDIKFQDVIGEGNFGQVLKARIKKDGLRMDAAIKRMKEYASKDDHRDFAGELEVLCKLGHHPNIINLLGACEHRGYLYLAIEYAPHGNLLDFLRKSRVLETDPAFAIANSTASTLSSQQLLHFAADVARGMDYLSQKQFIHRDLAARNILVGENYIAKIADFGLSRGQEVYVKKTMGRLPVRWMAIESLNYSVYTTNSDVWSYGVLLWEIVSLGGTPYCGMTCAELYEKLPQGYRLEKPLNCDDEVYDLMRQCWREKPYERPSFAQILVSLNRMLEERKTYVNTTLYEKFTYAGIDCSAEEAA

B1: human anti-Tie2 antibody #2 (antibody, V domains shown)
VH: DVQLVESGGGVVRPGESLRLSCAASGFSFINFAMTWVRQAPGEGPEWVSLISDDGRGNRPYYADSVKGRFTISRDNSKNILYLQMNSLRVEDTATYYCAKVSWDVFFDYWGLGTVVTVSS
VL: EIVLTQSPGTVSLSPGERVTLSCRASQPIDVYLAWYQQKPGQAPRLLIYGANRRAIDIPDRFSGSGSGTEFTLTINSLQNEDFAVYFCQQYMTWPPVTFGGGTKVEIK
notes: also called Ab #2; Antibody Clone # 2
With B1, in assay [1], the “EC50 of pAkt relative to total Akt in HUVEC cells (western blot, quantitative fluorescence imaging)” value (from here on “EC50 of pAkt relative to total Akt”) was 0.48 nM. Also, the “Cross-Reactivity Screen (mAb at 10 ug/mL)” value (“Cross-Reactivity Screen” for short) in [2] was found to be 64.9; in [5], 53.2; in assay [8], 41.7. In addition, the EC50 in assay [3] was found to be 7.7 nM; in assay [4], 1 nM; in assay [6], 4.1 nM; in [7], 2.7 nM; in [9] it was 1.4 nM.

B2: anti-Tie2 antibody #31 (antibody, V domains shown)
VH: DVQLVESGGGVVRPGESPRLSCAASGFSFINFAMTWVRQAPGEGPEWVSLISDDGRGNRPYYADSVKGRFTISRDNSKNILYLQMNSLRVEDTATYYCAKVSWDVFFDYWGLGTLVTVSS
VL: EIVLTQSPGTVSLSPGERVTLSCRASQPIDVYLAWYQQKPGQAPRLLIYGANRRAIDIPDRFSGSGSGTEFTLTINSLQNEDFAVYFCQQYMTWPPVTFGGGTKVEIK
notes: also called Ab #31; Antibody Clone # 31
Take B2: the results for the “Cross-Reactivity Screen” value in assay [2], in assay [5] and in assay [8] were 65.3, 47.5 and 28.5, respectively.

B3: Angiopoietin-1 (ligand, UniProt Q15389 20-498, looked up)
chain: SNQRRSPENSGRRYNRIQHGQCAYTFILPEHDGNCRESTTDQYNTNALQRDAPHVEPDFSSQKLQHLEHVMENYTQWLQKLENYIVENMKSEMAQIQQNAVQNHTATMLEIGTSLLSQTAEQTRKLTDVETQVLNQTSRLEIQLLENSLSTYKLEKQLLQQTNEILKIHEKNSLLEHKILEMEGKHKEELDTLKEEKENLQGLVTRQTYIIQELEKQLNRATTNNSVLQKQQLELMDTVHNLVNLCTKEGVLLKGGKREEEKPFRDCADVYQAGFNKSGIYTIYINNMPEPKKVFCNMDVNGGGWTVIQHREDGSLDFQRGWKEYKMGFGNPSGEYWLGNEFIFAITSQRQYMLRIELMDWEGNRAYSQYDRFHIGNEKQNYRLYLKGHTGTAGKQSSLILHGADFSTKDADNDNCMCKCALMLTGGWWFDACGPSNLNGMFYTAGQNHGKLNGIKWHYFKGPSYSLRSTTMMIRPLDF
Regarding B3, the “EC50 of pAkt relative to total Akt” value in assay [1] came out at 0.54 nM.

B4: anti-Tie2 antibody #5 (antibody, V domains shown)
VH: DVQLVESGGGVVRPGESLRLSCTASGFSFDVYAMTWVRQAPGKGLEWLTLISGTGRMTYYADSVKGRFTVSRDNSKKTLYLQMNSLRAEDTAVYYCAKDPFGHGFFDYWGLGTLVTVSS
VL: EIVLTQSPGTLSLSPGERATLSCRASQTVGSKLAWYQQKPGQAPRLLIYDASTRATGIPDRFSGSGSGTDFTLTISSLQSEDFAVYYCQQYNNWPPLTFGGGTKVEIK
notes: also called Ab #5; Antibody Clone # 5
In the case of B4, the “Cross-Reactivity Screen” value came to 60.2 in [2], 73.1 in [5] and 0.2 in [8].

B5: anti-Tie2 antibody #6 (antibody, V domains shown)
VH: DVQLVESGGGVVRPGESLRLSCTASGFSFDVYAMTWVRQAPGKGLEWLTLISGTGRMTYYADSVKGRFTVSRDNSKKTLYLQMNSLRAEDTAVYYCAKDPFGHGFFDYWGLGTLVTVSS
VL: EIVLTQSPGTLTLSPGETATLTCRASQSVNRNLAWYQEKPDQAPRLLIYDARTRATGVPDRFSGSGSGTDFTLTINSLQSEDFAVYVCQQYYDWPPFTFGGGTKVEIK
notes: also called Ab #6; Antibody Clone # 6
For B5, the “Cross-Reactivity Screen” value in assay [2] came out at 63.7; in [5] it was 78.8; in [8], 0.3.

B6: antibody clone #3 Fab (Fab, V domains shown)
VH: DVQLVESGGGVVRPGESLRLSCTASGFTFDSYGMSWVRQAPGKGLEWVSSINVGDNTYYADSVRGRFIISRDSSRNTLYLQMNSLTAEDTAVYYCANWNSFFDYWGLGTLVTVSS
VL: EIVLTQSPGTLSLSPGEIATLSCRASQNVRSDLAWYQQKPGQAPRLLIYDASNRATGIPDRFSGSGSGTDFTLTISSLQSEDFAVYYCQQYSNWPPLTFGGGTKVEIK
Consider B6, for which, in [10], the Kd turned out to be 3.21 nM, the off-rate (koff) came out at 0.000876 s⁻¹ and the on-rate constant (kon) came out at 273000 M⁻¹ s⁻¹. For the same molecule, in assay [11], the Kd was 2.34 nM, the koff worked out at 0.000377 s⁻¹ and the kon came to 161000 M⁻¹ s⁻¹. In the assay with Rat Tie2 ECD, this molecule yielded a Kd of 2.56 nM and an on-rate constant (kon) of 254000 M⁻¹ s⁻¹.

B7: human anti-Tie2 antibody #1 (antibody, V domains shown)
VH: DVQLVESGGGVVRPGESLRLSCAASGFTFSSYAMSWVRQAPGEGLEWVARISDYTIYYADSVKGRFTISRDNSKNTLYLQMNSLRAEDTAVYYCAKSGPKSGKYWNNFFDSWGLGTLVTVSS
VL: EIVLTQSPGTLSVSPGERATLTCRASQSVKTDLAWYQQKPGQAPRLLIYGATTRATGIPARFSGSGSGTEFTLTITNLQSEDFAVYYCQQYYVWPPLTFGGGTKVEIK
notes: also called Ab #1; Antibody Clone # 1
Turning to B7, the “EC50 of pAkt relative to total Akt” value in assay [1] came out at 0.91 nM. The results for the “Cross-Reactivity Screen” value in assay [2], in assay [5] and in assay [8] were 60.7, 74.1 and 0.4, respectively. Further, the EC50 in assay [3] was found to be 7.8 nM; in assay [4], 2 nM; in assay [7] it was 8 nM.

For orientation: EC50 means the concentration giving half of the maximal effect. A word on the Kd: it is a measure of binding affinity in units of concentration. Broadly, the koff is a measure of how fast the partners let go of each other. One may read the kon as a measure of how fast the partners come together.
